Experimental data taken from US20250034239A1 (LINNO PHARMACEUTICALS, published 2025).

T1: human VEGFA121 (human, UniProt P15692-9 27-147, biotinylated)
T1 construct: Biotinylated; also called hVEGFA121; hVEGFA121-biotin
T1 sequence (looked up): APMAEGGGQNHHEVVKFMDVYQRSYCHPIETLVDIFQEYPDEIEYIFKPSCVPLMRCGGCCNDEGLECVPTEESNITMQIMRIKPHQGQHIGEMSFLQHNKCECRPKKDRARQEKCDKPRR


Columns and labels:
human VEGFA121 = molecular target: T1, human VEGFA121; experiment: target-binding ELISA on hVEGFA121, humanized VHH-Fc
Protocol: For binding ELISA, immunoplates were coated with 100 μl/well 1 μg/ml streptavidin and incubate at 4° C. overnight. Wells were washed with PBST for 3 times and blocked with 200 μl of 1% BSA/PBS at RT for 1 hr. Washed with PBST for 3 times and add hVEGFA121-biotin or mVEGFA120-biotin (0.1 μg/ml) 100 al/well and incubated at RT for 1 hr. Plates were washed with PBST for 3 times, 100 al/well 5-fold serially diluted VHH-Fcs from 2 μg/ml was added. and incubate at RT for 1 hr. Plates were washed with PBST for 3 times and add 100 al goat anti-human Fc-HRP (Sigma, A0170) diluted 1/5000 in 1% BSA/PBST to each well and incubate at RT for 1 hr. Plates were then washed as before and add 100 al TMB substrate and incubate at RT for 15 min. 100 al per well stop solution was added to stop the reaction, and the plates were read with microplate reader at 450 nm.
Four VHHs (C2, C8, F6, D2) were selected for humanization. Proceed with plasmid construction and protein production as above, the humanized VHH-Fc was characterized with target-binding (ELISA) and RBA.

[1] = molecular target: T2, human transferrin (Sigma T3309) (human, UniProt P02787 20-698); experiment: flow cytometry on HEK293F-hTfR1 cells with human transferrin, pH 7.4; grade by % binding (10% > + ≥ 5%)
T2 construct: mature; same polypeptide; also called native human transferrin; hTf
T2 sequence (P02787 20-698): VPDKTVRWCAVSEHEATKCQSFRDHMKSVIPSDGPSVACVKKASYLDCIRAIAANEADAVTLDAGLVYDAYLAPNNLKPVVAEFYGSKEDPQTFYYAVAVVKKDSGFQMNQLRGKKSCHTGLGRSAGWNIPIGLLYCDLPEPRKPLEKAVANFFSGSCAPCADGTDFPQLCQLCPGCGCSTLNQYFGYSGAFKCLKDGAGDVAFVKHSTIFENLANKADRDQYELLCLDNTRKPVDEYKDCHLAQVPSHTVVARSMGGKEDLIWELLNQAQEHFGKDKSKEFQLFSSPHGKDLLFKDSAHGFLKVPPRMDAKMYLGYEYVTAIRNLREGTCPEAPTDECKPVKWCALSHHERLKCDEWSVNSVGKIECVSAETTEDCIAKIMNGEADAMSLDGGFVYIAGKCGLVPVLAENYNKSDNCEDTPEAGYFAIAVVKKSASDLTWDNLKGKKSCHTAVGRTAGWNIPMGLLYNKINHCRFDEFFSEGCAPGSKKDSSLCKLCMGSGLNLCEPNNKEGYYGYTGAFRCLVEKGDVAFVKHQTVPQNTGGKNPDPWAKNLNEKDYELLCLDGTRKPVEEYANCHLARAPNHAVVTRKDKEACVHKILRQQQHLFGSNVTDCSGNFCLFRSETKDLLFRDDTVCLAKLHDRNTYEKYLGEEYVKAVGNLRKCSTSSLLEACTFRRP
Protocol: (§1) HEK293F-hTfR1 cells were prepared by transfecting hTfR1-expressing plasmid, with a GFP tag, into HEK293F cells. Stable pool was used for this assay. Briefly, the engineered HEK293F cells expressing hTfR1 were cultured with OPM-293 CD05 medium at 37° C., with 8% CO₂ and saturated humidity in cell shaker. […] The cells were washed twice by centrifugation at 300 g for 5 min at 4° C., before rabbit anti-OVA antibodies and a secondary anti-rabbit IgG-AF647 (all prepared in blocking buffer). The cells were scanned with CytoFLEX (Beckman).

[2] = molecular target: T3, human transferrin receptor 1 on HEK293F-hTfR1 cells (human, UniProt P02786 1-760); experiment: flow cytometry on HEK293F-hTfR1 cells with or without transferrin
T3 construct: whole, on cells
T3 sequence (P02786 whole entry): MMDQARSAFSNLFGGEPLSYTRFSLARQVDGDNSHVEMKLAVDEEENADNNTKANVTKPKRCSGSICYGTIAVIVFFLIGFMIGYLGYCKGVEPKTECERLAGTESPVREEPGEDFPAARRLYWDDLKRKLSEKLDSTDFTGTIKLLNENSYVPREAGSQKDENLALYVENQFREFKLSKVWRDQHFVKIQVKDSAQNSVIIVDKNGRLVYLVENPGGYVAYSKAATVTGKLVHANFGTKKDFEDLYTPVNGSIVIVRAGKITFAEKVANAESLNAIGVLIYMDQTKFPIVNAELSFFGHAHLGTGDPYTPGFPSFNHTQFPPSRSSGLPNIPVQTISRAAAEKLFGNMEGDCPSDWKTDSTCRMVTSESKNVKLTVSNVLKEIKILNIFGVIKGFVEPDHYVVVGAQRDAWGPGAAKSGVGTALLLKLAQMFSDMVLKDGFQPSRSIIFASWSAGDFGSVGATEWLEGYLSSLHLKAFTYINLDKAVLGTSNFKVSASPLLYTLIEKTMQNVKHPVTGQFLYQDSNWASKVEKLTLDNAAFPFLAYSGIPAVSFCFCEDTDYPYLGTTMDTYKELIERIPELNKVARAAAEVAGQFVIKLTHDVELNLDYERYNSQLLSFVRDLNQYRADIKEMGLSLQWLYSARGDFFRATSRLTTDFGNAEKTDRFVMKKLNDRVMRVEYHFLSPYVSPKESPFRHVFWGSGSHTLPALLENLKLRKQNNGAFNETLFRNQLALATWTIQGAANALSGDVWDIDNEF
Protocol: as §1

[3] = molecular target: T2, human transferrin (Sigma T3309); experiment: flow cytometry on HEK293F-hTfR1 cells with human transferrin, pH 7.4; grade by % binding (+++ ≥ 15%)
Protocol: as §1

[4] = molecular target: T2, human transferrin (Sigma T3309); experiment: flow cytometry on HEK293F-hTfR1 cells with human transferrin, pH 6.0; grade by % binding (+++ ≥ 15%)
Protocol: as §1

binding result (human VEGFA121)	percent binding (flow cytometry, VHH/Tf on hTfR1-overexpressing cells, pH 7.4) [1] [%]	binding result [2]	percent binding (flow cytometry, VHH/Tf on hTfR1-overexpressing cells, pH 7.4) [3] [%]	percent binding (flow cytometry, VHH/Tf on hTfR1-overexpressing cells, pH 6.0) [4] [%]	Binder
binds	–	–	–	–	SLN-6043 humanized VHH-Fc (Fc fusion, tested as VHH-Fc; also called F6-1; not shown: human IgG4 Fc (VHH-hIgG4 Fc fusion)) EVQLVESGGGVVQPGGSLRLSCAASGFTSDNCAVHWVRQAPGKGLEWVSSISSDDSTRYADSVKGRFTISRDNSKNSLYLQMNSLRTEDTALYYCQTKWPCTYRRGGSAYRPAVVWGQGTLVTVSS
–	5 to 10	no binding (tested: 10 µg/mL)	–	–	SLN0065 VHH-OVA-His (VHH, Tested as recombinant VHH-OVA-His; not shown: His tag) EVQLVESGGGSVQAGGSLRLSCLYTDSLFWMGWFRQTPGNEREGVAVTGRDGSTIYADSVQGRFTISRDNAKNTLYLQMNSLKPDDTAMYYCAADQTRYSSLRLLAPNRSASWGQGTQVTVSSGSIGAASMEFCFDVFKELKVHHANENIFYCPIAIMSALAMVYLGAKDSTRTQINKVVRFDKLPGFGDSIEAQCGTSVNVHSSLRDILNQITKPNDVYSFSLASRLYAEERYPILPEYLQCVKELYRGGLEPINFQTAADQARELINSWVESQTNGIIRNVLQPSSVDSQTAMVLVNAIVFKGLWEKAFKDEDTQAMPFRVTEQESKPVQMMYQIGLFRVASMASEKMKILELPFASGTMSMLVLLPDEVSGLEQLESIINFEKLTEWTSSNVMEERKIKVYLPRMKMEEKYNLTSVLMAMGITDVFSSSANLSGISSAESLKISQAVHAAHAEINEAGREVVGSAEAGVDAASVSEEFRADHPFLFCIKHIATNAVLFFGRCVSP
–	–	no binding (tested: 10 µg/mL)	≥ 15	≥ 15	SLN0072 VHH-OVA-His (VHH, Tested as recombinant VHH-OVA-His; not shown: His tag) EVQLVESGGGSVQAGGSLRLSCVASGYTGSSSYMGWFRQVPGKEREGVAQINSRSGSTYYADSVKGRFTISQDNAKNTVYLQMTSLKPEDTGMYYCAERFGPTFYPVPLGSNLYNYWGQGTQVTVSSGSIGAASMEFCFDVFKELKVHHANENIFYCPIAIMSALAMVYLGAKDSTRTQINKVVRFDKLPGFGDSIEAQCGTSVNVHSSLRDILNQITKPNDVYSFSLASRLYAEERYPILPEYLQCVKELYRGGLEPINFQTAADQARELINSWVESQTNGIIRNVLQPSSVDSQTAMVLVNAIVFKGLWEKAFKDEDTQAMPFRVTEQESKPVQMMYQIGLFRVASMASEKMKILELPFASGTMSMLVLLPDEVSGLEQLESIINFEKLTEWTSSNVMEERKIKVYLPRMKMEEKYNLTSVLMAMGITDVFSSSANLSGISSAESLKISQAVHAAHAEINEAGREVVGSAEAGVDAASVSEEFRADHPFLFCIKHIATNAVLFFGRCVSP
binds	–	–	–	–	SLN6065 humanized VHH-Fc (Fc fusion, tested as VHH-Fc; also called D2-9; not shown: human IgG4 Fc (VHH-hIgG4 Fc fusion)) EVQLVESGGGLVQPGGSLRLSCAASRDAYFNNYMAWFRQAPGKGLEGVSSIATNTGNDYYADSVKGRFTISRDNSKNTIYLQMNSLRAEDTAVYYCAAGWRGGSFWTPSKYSYWGQGTLVTVSS
–	–	no binding (tested: 10 µg/mL)	≥ 15	≥ 15	SLN0049 VHH-OVA-His (VHH, Tested as recombinant VHH-OVA-His; not shown: His tag) EVQLVESGGGSVQAGGSLRLSCAASRATNSRYSMGWFRQAPGKEREGVAAIDSIGRTSYADSVKGRFTISQDGAKNTLYLQMNSLKPEDTAMYYCAATAWRDWATLREYEYGYWGQGTQVTVSSGSIGAASMEFCFDVFKELKVHHANENIFYCPIAIMSALAMVYLGAKDSTRTQINKVVRFDKLPGFGDSIEAQCGTSVNVHSSLRDILNQITKPNDVYSFSLASRLYAEERYPILPEYLQCVKELYRGGLEPINFQTAADQARELINSWVESQTNGIIRNVLQPSSVDSQTAMVLVNAIVFKGLWEKAFKDEDTQAMPFRVTEQESKPVQMMYQIGLFRVASMASEKMKILELPFASGTMSMLVLLPDEVSGLEQLESIINFEKLTEWTSSNVMEERKIKVYLPRMKMEEKYNLTSVLMAMGITDVFSSSANLSGISSAESLKISQAVHAAHAEINEAGREVVGSAEAGVDAASVSEEFRADHPFLFCIKHIATNAVLFFGRCVSP
binds	–	–	–	–	SLN6062 humanized VHH-Fc (Fc fusion, tested as VHH-Fc; also called C8-9; not shown: human IgG4 Fc (VHH-hIgG4 Fc fusion)) EVQLVESGGGLVQPGGSLRLSCAASVYTASCMGWFRQAPGKGLELVSTLNRNSGRTSYVGSVKGRFTISQDNSKKTLYLQMNSLRAEDTAVYYCAATWSWYSFTCPGDQNAYIHWGQGTLVTVSS
binds	–	–	–	–	SLN-6068 humanized VHH-Fc (Fc fusion, tested as VHH-Fc; also called C2-11; not shown: human IgG4 Fc (VHH-hIgG4 Fc fusion)) EVQLVESGGGLVQPGGSLRLSCAASVYTSSTYYMAWFRQAPGKGREGVAAAYAGGGGTVYADSVKGRFTISQDNSKNTLYLQMNSLRAEDTAVYYCAARMSRLLGMAPLLPEHYDSWGQGTLVTVSS
–	–	no binding (tested: 10 µg/mL)	–	≥ 15	SLN0044 VHH-OVA-His (VHH, Tested as recombinant VHH-OVA-His; not shown: His tag) DVQLVESGGGSVQAGGSLRLSCAASIYTYSTACMAWFRQAPGKEREGVAAIARYGDTTYTDSVKGRFTISRDVAKNILYLQMSSLKPEDTAMYYCASKSPNSGCDEYAHYETFGQGTQVTVSSGSIGAASMEFCFDVFKELKVHHANENIFYCPIAIMSALAMVYLGAKDSTRTQINKVVRFDKLPGFGDSIEAQCGTSVNVHSSLRDILNQITKPNDVYSFSLASRLYAEERYPILPEYLQCVKELYRGGLEPINFQTAADQARELINSWVESQTNGIIRNVLQPSSVDSQTAMVLVNAIVFKGLWEKAFKDEDTQAMPFRVTEQESKPVQMMYQIGLFRVASMASEKMKILELPFASGTMSMLVLLPDEVSGLEQLESIINFEKLTEWTSSNVMEERKIKVYLPRMKMEEKYNLTSVLMAMGITDVFSSSANLSGISSAESLKISQAVHAAHAEINEAGREVVGSAEAGVDAASVSEEFRADHPFLFCIKHIATNAVLFFGRCVSP
–	5 to 10	no binding (tested: 10 µg/mL)	–	–	SLN0071 VHH-OVA-His (VHH, Tested as recombinant VHH-OVA-His; not shown: His tag) EVQLVESGGGSVQAGGSLRLSCAGSEYTYSRCCMGWFRQAPGKEREGVVSINVLGGTSYADSVKGRFTISRDNAENTLYLQMNSLKPEDTAMYYCAAGLASAPWRPCGTTTEEYKYWGQGTQVTVSSGSIGAASMEFCFDVFKELKVHHANENIFYCPIAIMSALAMVYLGAKDSTRTQINKVVRFDKLPGFGDSIEAQCGTSVNVHSSLRDILNQITKPNDVYSFSLASRLYAEERYPILPEYLQCVKELYRGGLEPINFQTAADQARELINSWVESQTNGIIRNVLQPSSVDSQTAMVLVNAIVFKGLWEKAFKDEDTQAMPFRVTEQESKPVQMMYQIGLFRVASMASEKMKILELPFASGTMSMLVLLPDEVSGLEQLESIINFEKLTEWTSSNVMEERKIKVYLPRMKMEEKYNLTSVLMAMGITDVFSSSANLSGISSAESLKISQAVHAAHAEINEAGREVVGSAEAGVDAASVSEEFRADHPFLFCIKHIATNAVLFFGRCVSP
–	–	no binding (tested: 10 µg/mL)	≥ 15	≥ 15	SLN0056 VHH-OVA-His (VHH, Tested as recombinant VHH-OVA-His; not shown: His tag) EVQLVESGGGSVQAGGSLRLSCRASGHAYGGNYMGWFRQAPGKEREGVAVLYTGGGSTYYADSVKGRFTISEDNAKNTVYLQMDSLKLEDTAMYYCALALGSARWYTSSLDARAYNIWGQGTQVTVSSGSIGAASMEFCFDVFKELKVHHANENIFYCPIAIMSALAMVYLGAKDSTRTQINKVVRFDKLPGFGDSIEAQCGTSVNVHSSLRDILNQITKPNDVYSFSLASRLYAEERYPILPEYLQCVKELYRGGLEPINFQTAADQARELINSWVESQTNGIIRNVLQPSSVDSQTAMVLVNAIVFKGLWEKAFKDEDTQAMPFRVTEQESKPVQMMYQIGLFRVASMASEKMKILELPFASGTMSMLVLLPDEVSGLEQLESIINFEKLTEWTSSNVMEERKIKVYLPRMKMEEKYNLTSVLMAMGITDVFSSSANLSGISSAESLKISQAVHAAHAEINEAGREVVGSAEAGVDAASVSEEFRADHPFLFCIKHIATNAVLFFGRCVSP
